From the supplement of paper PMC9732359
± gives the uncertainty stated by the source.

Assay: protein stability index of a GFP-peptide fusion (yeast GPS) (PSI 1-4); higher = more stable; sorted into four equal gates, so the index is relative within each strain
Conditions: doa10∆
Summary of the method: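 Yeast carrying a pooled library were grown to mid-log phase in leucine-free medium. Each library plasmid expresses Cherry and has a tiled 17-residue yeast protein peptide fused downstream of GFP. Cells were sorted into four equal gates by GFP/Cherry ratio, and plasmids from each gate were PCR-amplified, Illumina-sequenced and assigned to strains by barcode. Summing, across gates, the read frequency times the gate number gave each peptide's protein stability index.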

Sequence | protein stability index
RTIGIAVDHRRQNRNQE [RPL13A] | 2.65 ± 0.18

Same assay, conditions: pdr5∆

Sequence | protein stability index
QRDFRKHGAVHMSTYLK [RPL21B] | 2.42 ± 0.042
QRETMKERKLRENIAML [SMC1] | 3.01 ± 0.19
QRHIAVGKQIVNIPSFM [RPS9A] | 2.74 ± 0.067
QRIIADLSADKPTSPFI [SRB8] | 2.81 ± 0.054
QRQERLRQQQQQQDQPE [RPN10] | 2.88 ± 0.064
QRSNISTAIKSLVALGI [CDC53] | 2.82 ± 0.054
QRVCLRSDSYMLHKVLE [RPT6] | 2.95 ± 0.073
QSESRQKRQLHDISKTE [SNU114] | 2.87 ± 0.071
QSKKLIEEKLSSFSKKT [YIL149C/MLP2] | 3 ± 0.049
QSKLKDVVEYLDKVINK [RPN8] | 2.32 ± 0.055
QSLDTIGGSDAAFEKRY [RPO21] | 3.38 ± 0.074
QSVYNDEKLKTEKLKND [SRB8] | 3.74 ± 0.21
QSYGGRPYGVGLLIIGY [PRE5] | 3.01 ± 0.067
QTANEKHITVRLTAKRL [SRP14] | 2.91 ± 0.09
QTAVTCESCSTVLCTPT [RPS27B] | 2.29 ± 0.058
QTLLQRSEDPAGLGKTN [YGR119C/NUP57] | 3.12 ± 0.11
QTLYTGDKVVVTIWYRA [SSN3] | 1.32 ± 0.069
QVVGPFHTSFSAVVGPN [SMC4] | 2.39 ± 0.055
QWSMVAQRLQISDYQQL [SWI1] | 1.65 ± 0.054
QWTGGRGGGHHSFEDAH [FAS1] | 3.47 ± 0.2
QWYTLQSQLNVTLSQLV [MED8] | 2.15 ± 0.032
QYMEELADDDEERFSEL [RPL5] | 1.14 ± 0.18
RAFLIEEQKIVKKVVKE [RPL34A] | 3.02 ± 0.13
RAIILERNAAYQKEYET [RPL7A] | 2.81 ± 0.05
RAKALGIKVTNPKGRLA [RPL32] | 3.33 ± 0.18
RAPQQSVLQLFQSVQLN [SMC2] | 1.98 ± 0.044

Sequence | protein stability index
RASIEYYVGQVMRNNES [DIS3] | 3.21 ± 0.091
RAYRIIRAHQTELTHHL [QCR7] | 3.34 ± 0.081
RDGGLRLGEMERDCVIA [RET1] | 3.3 ± 0.12
RDKKEKKQAQKQTKLRK [SMB1] | 3.53 ± 0.072
RDLSEASVYPEYALPKT [RPS26A] | 3.01 ± 0.067
REGLIDTAVKTAETGYI [RPO21] | 1.37 ± 0.099
REKRDRTHFKRMRFPPF [PRP8] | 2.64 ± 0.069
RENMICKIDFQKNFMDQ [RRI2] | 2.96 ± 0.11
RERRAALTDFERFQVMV [RPL14A] | 2.24 ± 0.094
RESFEDNVVRFLNEARD [RPO21] | 2.98 ± 0.13
RETDPLVYNMTSFEQGE [RPT4] | 2.49 ± 0.11
RETLVKTWEKVTLDFGN [SMC2] | 1.74 ± 0.14
RFAFSVIWELDDSANIV [DIS3] | 2.49 ± 0.067
RFISDLLWLVLIHPENF [SWI1] | 1.28 ± 0.092
RFKSQFLYVLIPAGIYW [QCR8] | 2.15 ± 0.069
RFKYAPGTIVLYAERVQ [RPS3] | 1.65 ± 0.062
RFNVVKVSAAAGKANKQ [RPS11A] | 1.38 ± 0.087
RFVLSDDYSNLKREERQ [SMC3] | 2.65 ± 0.081
RFYQLGVDLKLKYSKRR [CSN12] | 1.16 ± 0.1
RGDSTETSSFGSMFSGD [RRI1] | 3.27 ± 0.16
RGHRIRREFKQYSLERN [PRP8] | 2.61 ± 0.094
RGHVLQFEWHQNSLLTN [SNF2] | 2.3 ± 0.064
RGIPRISTLFQRDRHTL [PRP8] | 2.66 ± 0.16
RGKNEIIQNAQRDAVTL [RPO21] | 2.99 ± 0.078
RGQQVENPTDNFIIWIN [GRR1] | 2.35 ± 0.082
RGSLDSEHVFDYFFYFL [NUT1] | 2.59 ± 0.042

Sequence | protein stability index
RGSSSLYTLVINDAGKA [RPL38] | 1.26 ± 0.068
RHFWGLRVRGQHTKTTG [RPS18A] | 1.99 ± 0.087
RHGSVVEASRRRRSSTN [MED1] | 3.41 ± 0.078
RIARALKQEGAANKTVV [RPL18A] | 3.39 ± 0.095
RIGTIVHKERHDGGFDL [RPS4A] | 2.54 ± 0.16
RIMEKSVILSVISMFVL [YML031W/NDC1] | 1.44 ± 0.1
RIMSRNFYLKRFISDLL [SWI1] | 2.37 ± 0.074
RIQNRVKLGLNSKMPTR [PRP8] | 2.92 ± 0.1
RIVNHKTKLWGFKWLNK [LIN1] | 3.1 ± 0.13
RKDENQFSYVDSSMTTV [AAR2] | 3.09 ± 0.045
RKILKKTFKNPKYESLK [RPN5] | 2.96 ± 0.07
RKKRTRRLKRKRRKVRA [RPL41A] | 3.21 ± 0.13
RKLGLLGDKEDEKQSAK [MTW1] | 3.41 ± 0.09
RKMTTDDDINWQELARS [RPT5] | 2.93 ± 0.072
RKQRVKKKTKKELELER [SWI1] | 2.96 ± 0.13
RKSYKNQIADLSGKFST [ROX3] | 2.94 ± 0.063
RKVENIRTILVNIHHLL [MED7] | 1.74 ± 0.041
RKVREQEELKKRQELEE [MED2] | 2.36 ± 0.048
RLFNVVVQDSQTATQLL [SMC2] | 2.79 ± 0.11
RLGEMERDCVIAYGASQ [RET1] | 3.28 ± 0.086
RLGLIPLQSMDIEQLEY [RPB3] | 2.92 ± 0.063
RLILLLNHRNKNQHRAA [RMP1] | 1.51 ± 0.079
RLISSKMPGGFTITVAR [FAS2] | 2 ± 0.063
RLLPNGSNKAQISIIDI [YML031W/NDC1] | 3.11 ± 0.067
RLRQGAAKLRTLDYAER [RPL2A] | 1.51 ± 0.049
RLYLKDQTNHIESDSIL [ECM29] | 2.76 ± 0.06

Sequence | protein stability index
RNSPFWWTNSHHDGKLW [PRP8] | 2.85 ± 0.06
RNSWNFALIDYFYDLDV [BRN1] | 1.87 ± 0.05
RPTEKPVGRELDPISLI [RPN13] | 3.4 ± 0.12
RQKNVIHRAARPTRPDK [RPL15A] | 3.69 ± 0.16
RQMNLVITLLNNSSITL [YCS4] | 1.18 ± 0.039
RQPANTKIGAKRIHSVR [RPS8A] | 3.26 ± 0.075
RQSSVGSLNATNFSPTP [SNF2] | 2.98 ± 0.048
RQTGPAKINEVYNNSKD [NSL1] | 3.06 ± 0.083
RRERRLIFGTIASKMSL [RPT3] | 2.48 ± 0.068
RRIKEAEENLKKRIRLP [YIL149C/MLP2] | 2.23 ± 0.067
RRRTYRAHGRINKYESS [RPL17A] | 2.37 ± 0.094
RSCVSNSNENGTLERIK [RPN4] | 3.07 ± 0.077
RSDGMGNVLLNATVVDS [YLR335W/NUP2] | 3.15 ± 0.099
RSEEEVTKLNVLVDEIK [YIL149C/MLP2] | 3.5 ± 0.11
RSILQSLNPALQEKIST [SWI1] | 2.79 ± 0.069
RSISKELIVSEEIPINS [SIR3] | 2.09 ± 0.051
RSISWAPSIGRWYQLIA [YGL100W/SEH1] | 1.15 ± 0.075
RSKSSHKNERRVLEIQT [SKI6] | 3.35 ± 0.087
RSLLLSRVRADDLSTRF [RRP43] | 3.63 ± 0.17
RSLRATAEERVGRRAAN [RPL15A] | 3.52 ± 0.19
RSLVREIAGLSPYERRL [RPL36A] | 3.5 ± 0.2
RSNDPQSSLSKVDIPLE [NUT2] | 3.23 ± 0.094
RSPTRRLELLQLSPVKN [SMC4] | 1.64 ± 0.19
RTAPKSDNVYLKLLVKL [RPL18A] | 2.8 ± 0.093
